Tests used:
[1] = molecular target: T1, human ZNRF3 extracellular domain (hZNRF3 ECD) (human, UniProt Q9ULT6 56-219, biotinylated (His-Avi tag)); assay: BLI (Octet), biotinylated ZNRF3 ECD on SA sensor
T1 construct: Expressed with a His-Avi tag at the N-terminus and biotinylated; also called ZRNF3
T1 sequence: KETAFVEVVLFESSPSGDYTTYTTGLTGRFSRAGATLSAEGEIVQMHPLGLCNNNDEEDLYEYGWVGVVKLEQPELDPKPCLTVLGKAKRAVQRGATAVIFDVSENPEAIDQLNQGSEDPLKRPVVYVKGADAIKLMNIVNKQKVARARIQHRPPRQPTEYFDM
Experimental: (§1) Affinity measurement: Binding kinetics of the RSPO-derived proteins to LGRS, RNF43, or ZNRF3, and binding of the anti-ASGR Fabs to human and/or mouse ASGR1 were determined by bio-layer interferometry (BLI) using Octet Red 96 (PALL ForteBio, Fremont, CA) instruments at 30° C., 1000 rpm with either streptavidin (SA) or anti-hIgG Fc capture (AHC) biosensors. […] Following capture of ECDs of RNF43, ZNRF3 or LGRS, the biosensors were dipped into wells containing the relevant test molecules at 7 different concentrations in running buffer plus a well with only running buffer as a reference channel. KD was determined by steady-state analysis based on the average responses between 140 to 145 seconds of association phase, for binding to LGRS, RNF43, and ZNRF3. For the binding to ASGR, KD was determined by curve model fitting using the Octet® Red data analysis software (Fortebio)

[2] = molecular target: T2, Fc portion of human IgG1-fused LGR5-ECD (R&D systems) (human, UniProt O75473 22-557, limits assumed); assay: BLI (Octet), LGR5-ECD-Fc on AHC sensor
T2 construct: extracellular domain; Bought reagent; also called LGRS; recombinant LGR5 protein; not shown: Fc portion of human IgG1
T2 sequence (looked up): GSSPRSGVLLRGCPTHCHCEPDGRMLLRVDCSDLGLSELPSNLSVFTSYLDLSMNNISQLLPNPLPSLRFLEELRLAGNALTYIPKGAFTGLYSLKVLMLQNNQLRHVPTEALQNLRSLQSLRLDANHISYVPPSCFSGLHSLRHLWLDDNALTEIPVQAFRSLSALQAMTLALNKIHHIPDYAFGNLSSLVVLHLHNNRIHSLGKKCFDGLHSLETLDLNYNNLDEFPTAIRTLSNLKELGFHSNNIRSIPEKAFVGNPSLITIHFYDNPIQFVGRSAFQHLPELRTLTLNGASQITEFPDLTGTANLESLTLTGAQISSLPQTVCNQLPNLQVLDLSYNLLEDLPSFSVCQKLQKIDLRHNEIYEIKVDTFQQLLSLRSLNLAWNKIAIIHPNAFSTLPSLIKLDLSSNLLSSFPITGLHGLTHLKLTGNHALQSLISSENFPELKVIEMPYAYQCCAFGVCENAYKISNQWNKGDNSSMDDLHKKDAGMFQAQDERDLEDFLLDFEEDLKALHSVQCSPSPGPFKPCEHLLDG
Experimental: as §1

[3] = molecular target: T3, human RNF43 extracellular domain (hRNF43 ECD) (human, UniProt Q68DV7 44-197, biotinylated (His-Avi tag)); assay: BLI (Octet), biotinylated RNF43 ECD on SA sensor
T3 construct: Expressed with a His-Avi tag at the N-terminus and biotinylated; also called human RNF3 (Q44-D198)
T3 sequence: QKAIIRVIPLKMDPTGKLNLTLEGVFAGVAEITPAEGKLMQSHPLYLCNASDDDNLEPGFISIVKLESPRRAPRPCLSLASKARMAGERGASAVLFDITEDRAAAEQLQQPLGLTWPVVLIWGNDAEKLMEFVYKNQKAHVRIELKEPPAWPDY
Experimental: as §1

[4] = molecular target: T4, human ASGR2 extracellular domain (hASGR2 ECD) (human, UniProt P07307 86-311, biotinylated (His/Avi tag)); assay: BLI, Fab on hASGR2
T4 construct: Cloned with a His/Avi tag
T4 sequence: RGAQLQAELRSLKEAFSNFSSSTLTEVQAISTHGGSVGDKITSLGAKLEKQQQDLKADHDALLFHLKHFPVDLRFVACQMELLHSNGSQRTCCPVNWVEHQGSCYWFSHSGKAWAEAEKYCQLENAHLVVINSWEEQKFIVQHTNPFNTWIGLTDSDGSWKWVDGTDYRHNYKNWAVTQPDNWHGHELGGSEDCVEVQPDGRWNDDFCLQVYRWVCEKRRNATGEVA

[5] = molecular target: T5, human ASGR1 extracellular domain (hASGR1 ECD) (human, UniProt P07306 62-291, biotinylated (His-Avi tag)); assay: BLI, Fab on hASGR1
T5 construct: His-Avi tag at the N-terminus, biotinylated for BLI; also called human ASGR1 ECD
T5 sequence: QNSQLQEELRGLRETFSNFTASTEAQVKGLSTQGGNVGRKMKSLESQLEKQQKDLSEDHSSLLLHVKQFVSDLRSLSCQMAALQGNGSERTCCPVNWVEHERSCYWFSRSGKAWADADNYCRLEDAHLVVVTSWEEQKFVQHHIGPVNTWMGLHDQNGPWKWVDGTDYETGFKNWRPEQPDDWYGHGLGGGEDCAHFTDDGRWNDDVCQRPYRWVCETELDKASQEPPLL

[6] = molecular target: T6, mouse ASGR1 extracellular domain (mASGR1 ECD) (mouse, biotinylated (His-Avi tag)); assay: BLI (Octet), Fab on biotinylated ASGR1 ECD, curve model fitting; Kd only in FIG. 9A
T6 construct: His-Avi tag at the C-terminus, biotinylated; also called murine ASGR1; mouse ASGR1 (Q61-N284)
T6 chain: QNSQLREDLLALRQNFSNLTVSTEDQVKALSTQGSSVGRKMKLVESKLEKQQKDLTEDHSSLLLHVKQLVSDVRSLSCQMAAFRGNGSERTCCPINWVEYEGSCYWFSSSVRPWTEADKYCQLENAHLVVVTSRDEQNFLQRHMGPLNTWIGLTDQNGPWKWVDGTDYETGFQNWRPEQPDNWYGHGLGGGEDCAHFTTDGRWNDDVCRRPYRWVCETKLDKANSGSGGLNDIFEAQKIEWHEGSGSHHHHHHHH
Experimental: as §1

[7] = molecular target: T5, human ASGR1 extracellular domain …; assay: as above
Experimental: as §1

B1: αGFP-RSPO2-RA (anti-GFP, RSPO2 (F105R/F109A)) (other)
chain: QVQLVESGGGLVQPGGSLRLSCAASGFTFSRYGMHWVRQAPGKGLEWVSGISSIGSNTYYADSVKGRFTISRDNSKNTLYLQMNSLRAEDTAVYYCARWYKTYIDVWGQGTLVTVSSGGGGSGGGGSGGGGSDIELTQPPSVSVAPGQTARISCSGDNLGKKYVYWYQQKPGQAPVLVIYGDDERPSGIPERFSGSNSGNTATLTISGTQAEDEADYYCASYDSSHILIVFGGGTKLTVLGSGGSNPICKGCLSCSKDNGCSRCQQKLFFFLRREGMRQYGECLHSCPSGYYGHRAPDMNRCARCRIENCDSCRSKDACTKCKVGFYLHRGRCFDECPDGFAPLEETMECVEGGDYKDDDDKGSHHHHHHHH
notes: scFv against GFP fused to the RSPO2 Fu1-Fu2 fragment with F105R/F109A; FLAG-His tag
- binding result [1]: binds
- binding result [2]: no binding
- binding result [3]: binds

B2: Abv-3D11 Fab (Fab, V domains shown)
VH: EVQLVESGGGLVQPKGSLKLSCAASGFSFNTYAMNWVRQAPGKGLEWVARIRSKSNNYATYYADSVKDRFTISRDDSESMLYLQMNNLKTEDTAMYYCVRPRYDYWYFDVWGTGTTVTVSS
VL: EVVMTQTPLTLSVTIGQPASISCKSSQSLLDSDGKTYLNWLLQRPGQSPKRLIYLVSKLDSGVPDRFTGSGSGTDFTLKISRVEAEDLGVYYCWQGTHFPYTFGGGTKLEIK
notes: Tested as Fab, from hybridoma development
- binding result [4]: binds

B3: Abv-10B8 Fab (Fab, V domains shown)
VH: DVKLVESGEGLVKPGGSLKLSCAASGFTFSSYAMSWVRQTPEKRLEWVAYISSGGDYIYYVDTVKGRFTISRDNARNTLYLQMSSLKSEDTAVYYCTREGTGGMDYWGQGTSVTVSS
VL: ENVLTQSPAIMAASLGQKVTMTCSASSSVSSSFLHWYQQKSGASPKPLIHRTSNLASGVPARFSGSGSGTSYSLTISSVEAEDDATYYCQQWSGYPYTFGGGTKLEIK
notes: as for B2
- binding result [4]: binds

B4: LP1-2I13 Fab (Fab, V domains shown)
VH: EVQLVESGGGLVKPGGSRKLSCAASGFTFSDYGMHWVRQAPEKGLEWVAYISSGSSTIYYADTVKGRFTISRDNAKNTLFLQMTSLRSEDTAMYYCSRKGGFGDYEKSYAMDYWGQGTSVTVSS
VL: DIQMTQSPASLSASVGETVTITCRASENIYSYLVWYQQKQGKSPQLLVYNAKTLAEGVPSRFSGSGSGTQFSLKINSLQPEDFGSYYCQHHYGTWTFGGGIKLEIK
notes: as for B2
- binding result [5]: binds

B5: LP1-8M24 Fab (Fab, V domains shown)
VH: QVQLQQSGAELARPGASVKLSCKASGYTFTNYGINWVKQRTGQGLEWIGEIFPRSDNTFYNEKFKGKATLTADKSSTTAYMELRSLTSEDSAVYFCARKGRDYGTSHYFDYWGQGTTLTVSS
VL: DIQMTQSPASLSVSVGETVTITCRISENIYSNLAWYQQKQGKSPHLLVYAAINLADGVPSRFSGSGSGTQFSLKINSLQSEDFGSYYCQHFWGTPFTFGSGTKLEIK
notes: as for B2
- binding result [5]: binds

B6: anti-ASGR1 Fab (Fab, V domains shown)
VH: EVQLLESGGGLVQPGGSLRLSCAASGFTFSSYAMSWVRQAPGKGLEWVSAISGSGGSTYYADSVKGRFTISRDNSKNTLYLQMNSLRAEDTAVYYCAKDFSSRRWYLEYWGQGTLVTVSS
VL: DIELTQDPAVSVALGQTVRITCQGDSLRSYYASWYQQKPGQAPVLVIYGKNNRPSGIPDRFSGSSSGNTASLTITGAQAEDEADYYCNSLERIGYLSYVFGGGTKLTVLG
notes: Made with a (His)6 tag at the C-terminus of the human IgG1 CH1 domain after a 5-mer linker (GSGSG); also called αASGR1 antibody (e.g., RO-01) expressed as a Fab
- binding result [6]: binds
- binding result [7]: binds
